# Assay results published in patent publication US6312887.
# Target: T1, STAT-1alpha wild type (transfected in U3A cells) (Homo sapiens) (UniProt P42224)
# T1 sequence: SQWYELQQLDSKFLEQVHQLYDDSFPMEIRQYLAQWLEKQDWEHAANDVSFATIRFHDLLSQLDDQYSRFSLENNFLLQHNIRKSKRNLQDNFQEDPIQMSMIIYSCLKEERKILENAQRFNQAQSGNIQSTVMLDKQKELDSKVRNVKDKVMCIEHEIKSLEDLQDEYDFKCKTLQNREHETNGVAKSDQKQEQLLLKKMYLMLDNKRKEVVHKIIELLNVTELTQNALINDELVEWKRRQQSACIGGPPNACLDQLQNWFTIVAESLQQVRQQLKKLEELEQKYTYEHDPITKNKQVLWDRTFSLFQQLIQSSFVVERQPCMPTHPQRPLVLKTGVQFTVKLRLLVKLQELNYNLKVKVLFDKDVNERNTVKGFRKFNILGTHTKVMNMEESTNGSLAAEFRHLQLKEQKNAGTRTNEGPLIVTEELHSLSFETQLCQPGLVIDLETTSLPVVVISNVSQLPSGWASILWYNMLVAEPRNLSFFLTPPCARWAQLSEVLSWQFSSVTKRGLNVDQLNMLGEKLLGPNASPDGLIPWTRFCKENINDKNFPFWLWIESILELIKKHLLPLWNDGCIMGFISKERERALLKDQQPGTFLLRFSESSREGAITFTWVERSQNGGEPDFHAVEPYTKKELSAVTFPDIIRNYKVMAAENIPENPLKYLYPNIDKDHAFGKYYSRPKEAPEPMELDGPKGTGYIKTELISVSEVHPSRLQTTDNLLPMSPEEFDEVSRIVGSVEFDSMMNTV
# Test: cell_activity
# Conditions: luciferase reporter in U3A cells, IFN-gamma 5 ng/ml 10 h
sequence,measurement,value
GATCAGTTCCCGTCAATCNATGATCCAGTTCCCGTCAATGATCCCCGGGATC (double strand) [tandem weak c-fos STAT-1 sites reporter enhancer],activity (fold induction),2
